assay: soluble on expression in E. coli; label from the status in PepcDB or PDB records

Sequence | soluble on expression in E. coli
MGSDKIHHHHHHMPGLPRASGSRFSRRLWSNLTWSGLLSMAVMPRHTSIARPPHGMMDPSGTTVWSYDTQGRIIGKTQVVDGASLVTSYVYDGDGRLASLTYPSGEVINYSWSNGQLTGIFRGTSLIASGITCHPFGPVKSWTLDNGQNIVRNFDLDGRITSYSLGSLAYDAASRITGISRGGISILGNSKTYGYDATDRLISFSDGTSAETYAYDASGNRTGQTINGMAYTYSVSYASNRLDAMAGPGSSLHYSYDANGSLVNDGQRSFGYDASGRLSEAVGLASYSFNGLGQRVKKNAGTVIMFVFDEGGQLIGEYGAAGNPIQETVWLDDVPLAVLRYGTTYYIHTDHLNTPPADS | not soluble
MIDQTALATEIKRLIKAAGPMPVWRYMELCLGHPEHGYYVTRDPLGREGDFTTSPEISQMFGELLGLWSASVWKAADEPQTLRLIEIGPGRGTMMADALRALRVLPILYQSLSVHLVEINPVLRQKQQTLLAGIRNIHWHDSFEDVPEGPAVILANEYFDVLPIHQAIKRETGWHERVIEIGASGELVFGVAADPIPGFEALLPPLARLSPPGAVFEWRPDTEILKIASRVRDQGGAALIIDYGHLRSDVGDTFQAIASHSYADPLQHPGRADLTAHVDFDALGRAAESIGARAHGPVTQGAFLKRLGIETRALSLMAKATPQVSEDIAGALQRLTGEGRGAMGSMFKVIGVSDPKIETLVALSDDTDREAERRQGTHGLEHHHHHH | soluble
MSDVTVVNCPTCGKPVVWGEISPFRPFCSKRCQLIDLGEWAAEEKRIASSGDQSDSDDWSEER | not soluble
GSHMRIPATIKKKMALPPATPVFTGEKKVEETKITAAIYDEKSVEFKELEVGELESVVRSALALNKKLWIDVVGVHDESLIAKICEFLGIHPLAAEDILNTAQRVKIEDYDDHLFLVLKILLYNETLEIDQLSLVLKKNLVATFEEREYWILDSIRSRLKSGGRMRKLAGDYLAYTILDAVVDSYFEALLKISDEIEVLEDEVVSGDSTLIGKIHSLKREILAFRNAVWPLRDVLSFFTRVEHELIGEEVKVYYRDVYDHAVRLME | soluble
MGHHHHHHSHMAGAGVPGEATGRGAGGRRRKRPLQRGKPPYSYIALIAMAIAHAPERRLTLGGIYKFITERFPFYRDNPKKWQNSIRHNLTLNDCFLKIPREAGRPGKGNYWALDPNAEDMFESGSFLRRRKRFKRSDLST | soluble
MGSDKIHHHHHHMTVTILHEANSIDTDYVKRARLISDKFLELIILPTEQCNFRCTYCYEDFSIGRMQPETIAGIKAILDKRCPNLSYLNLAWFGGEPLVAKNIVLDISEYALSLVSKYPHLHYSSNMTTNGYLLDLNTASALANVGVTKYQISLDGPREIHNQSRIRADGKSTFERIWTNLLAIRDSSLPIYINLRLHFTIDTVKLIDPLLEDIKREFLPDSRFSVYFKSIERLGGTNDASIKIYSESEKNTAIKTLEAKLFGEKLQSPQNATLPDDYVCYASRPNSLVIRANGSVGKCTVALSDERNNIGTLRTDGRLDLIPGRFAPWVRGIQTLDPDVLGCPLVSLPTSDEIATNLQTKALAV | not soluble
DNIITGRMKPLHWREMKEVDPNRVTLIDARPRQAYEVEHIPGAISMPVEEIRARIGEIPHDKPIYVYCAVGMRGYFASNILRQCGFSNVRNLIGGYRLYSTITADYSSAGQPATAQLPAKDSPSSHTQVPE | not soluble
MEIDKEILKRCKKYDRASFSQLFHLYEKYLYNLCYGYTQNTSDAMDLVQEIYIKVFKNIKNFDENLPFHPWVRKISVNTCLNFKRDNRGNVMSLNSKYYDSEFEEEDRLAEDYNMEQEVVNRINNEVVKESIKKLTYDYRMVIMLRYYEDLSYDEIASVLDMPIGTVKTKIYRAKNVLKKSLEKKLEVKK | not soluble
MSLKPINVVIIENENISRVGAAAILSETGKIQVCGLAKTGKEGIETVDQQKPDIVVINIDLPDINGTDVISLIKCKHTSIKIVVMTANSSRDTINAAISNGADCYYCKNNAREEVGERFIEAVMAAYNNESWIDPTINRILIDNLRSNDTADRDSLDLLSDFSNKEITVLKLAAGGMKNNEIANVMYVSEGTVRSYLHNSFIKLGVKDRLNAIREAIRLGILSFADEGHHHHHH | soluble
GPGSMSESCSGDYYHFVTQRSQAAEITLPIPSFCKPLAASVQPFGEGKAGLLASFFDPEQHAWVVRQLPVQESWSHQPPPSLTVRVATLVDPANLYELRVSLSSVLDGVDNDDLCALQRRSQIYGLVVEEHLADKSGAALRSAGAEGRLPQLREAVTLAAPVDVMNGFVLTGGGFLSDFPVLRDGPALPRSMNTVYDDILAGEDFCGPPMPAGGARFAGTDSAAHTSGGRGSDSPVNSNEPREYTAWSVTAAANAGLACISMGLRRRSPIEWPQLQSESQHTHSASPRERTGPGTSLAISPGPLRAKPPPSVVSDTGALAVYQCTGVPVSGLRPNEHGDGGNGAHGVVSAYSSAAVSTMAARPLLETLTLRGEVDVKLSRRDGEEWGISLPPPHGSLKFSMGPNRELVAAARRYFYCE | not soluble
MGSDKIHHHHHHMALKHYKNSDSTVFNDAKALFDLNKNILLKGPTGSGKTKLAETLSEVVDTPMHQVNCSVDLDTESLLGFKTIKTNAEGQQEIVFVDGPVIKAMKEGHILYIDEINMAKPETLPVLNGVLDYRRQITNPYTGEVIKAVPGFNVIAAINEGYVGTLPMNEALKNRFVVIHVDYIDGDILKNVIKEQSLLQDDKQIEQIIKFNEDLRTMSKQGQISEEAASIRALLDLCDLITVMPVERAIKRTIIDKLEDEREQQAIYNAVELNF | not soluble
MGSDKIHHHHHHMAQQTPLYEQHTLCGARMVDFHGWMMPLHYGSQIDEHHAVRTDAGMFDVSHMTIVDLRGSRTREFLRYLLANDVAKLTKSGKALYSGMLNASGGVIDDLIVYYFTEDFFRLVVNSATREKDLSWITQHAEPFGIEITVRDDLSMIAVQGPNAQAKAATLFNDAQRQAVEGMKPFFGVQAGDLFIATTGYTGEAGYEIALPNEKAADFWRALVEAGVKPCGLGARDTLRLEAGMNLYGQEMDETISPLAANMGWTIAWEPADRDFIGREALEVQREHGTEKLVGLVMTEKGVLRNELPVRFTDAQGNQHEGIITSGTFSPTLGYSIALARVPEGIGETAIVQIRNREMPVKVTKPVFVRNGKAVA | not soluble
MLKDEYGRVVTNLRIAVTKKCNLRCFYCHKEGESNPGEEISAERIVEIARAFKELGVRKLKITGGEPLLRKDLPDIILNLPEFEEISMTTNGILLEKYAEELRECGLSRVNVSLDTLDAEKYRWITGGGEVQKVVNGIEKACEVGLTPVKINMLVLGGVNDNEVDELLEFTNSFNRGNTKAILQVIELVPFPGFEKYFFDISTIEEKYARMATQRRVRAMHRRTQYFTPKGVIEFVKPMDNTAFCMHCNRMRVTSDGKLKPCLLRNETITIDGKHGEELARAIIETVRKREPYFKGLEHHHHHH | soluble
MSLESSDVPRELIESIKDVIGRKIKISVKKKVKLEVKGDKVENKVLVLTSCRAFLVTARIPTKLELTFSYLEIHGVVCSKSAQMIVETEKCSISMKMASPEDVSEVLAHIGTCLRKIFPGLSPVRIMKKVSMEPSERLASLQALWDSQTVAEQGPCGGFSQMYACVCDWLGFSYREEVQWDVDTIYLTQDTRELNLQDFSHLDHRDLIPIIAALEYNQWFTKLSSKDLKLSTDVCEQILRVVSRSNRLEELVLENAGLRTDFAQKLASALAHNPNSGLHTINLAGNPLEDRGVSSLSIQFAKLPKGLKHLNLSKTSLSPKGVNSLSQSLSANPLTASTLVHLDLSGNVLRGDDLSHMYNFLAQPNAIVHLDLSNTECSLDMVCGALLRGCLQYLAVLNLSRTVFSHRKGKEVPPSFKQFFSSSLALMHINLSGTKLSPEPLKALLLGLACNHNLKGVSLDLSNCELRSGGAQVLEGCIAEIHNITSLDISDNGLESDLSTLIVWLSKNRSIQHLALGKNFNNMKSKNLTPVLDNLVQMIQDEESPLQSLSLADSKLKTEVTIIINALGSNTSLTKVDISGNGMGDMGAKMLAKALQINTKLRTVIWDKNNITAQGFQDIAVAMEKNYTLRFMPIPMYDASQALKTNPEKTEDALQKIENYLLRNHETRKEGHHHHHH | soluble
MTESYDVVVVGGGPVGLATAWQVAERGHRVLVLERHTFFNENGGTSGAERHWRLQYTQEDLFRLTLETLPLWRALESRCERRLIHEIGSLWFGDTDVVTNEGQISGTAAMMDKLSVRYEWLKATDIERRFGFRGLPRDYEGFLQPDGGTIDVRGTLAALFTLAQAAGATLRAGETVTELVPDADGVSVTTDRGTYRAGKVVLACGPYTNDLLEPLGARLAYSVYEMAIAAYRQATPVTEAPFWFAFQQPTPQDTNLFFGFGHNPWAPGEFVRCGPDFEVDPLDHPSAATGVADRRQMDRLSGWLRDHLPTVDPDPVRTSTCLAVLPTDPERQFFLGTARDLMTHGEKLVVYGAGWAFKFVPLFGRICADLAVEDSTAYDISRLAPQSALLEHHHHHH | soluble
MTTVSNIHHASKPRLNTLLVTARDSPYDTTLPARTPVDFCRPGSQWRVMDIDLVLAPVDGSDQSERAAEYAIAVAERYDADLHLLFVIDERLHQDIDSGDVSATAIAEEHQAFTESIRDRFRDAHDGVFETSSATAFSETRLMQTPGSVVLDVAEDLDSDFIVVPREEGSEEAVGRAAIYVIEYASQPVLTV | not soluble
MGSDKIHHHHHHMRILWINHRDPKHPQAGGAEVRLYEIARRLVKMGHEVMVLCEKVSRLPGEEVLEGIRIKRSGGRASIHLLAPLYVRKHGHEYDVIVDDIAHAVPWYSPLVTKTPVVAQIHHVHQDVVYIELPKPLAWIVSRAEKTIAKIYRRFIAVSQSTKKELAKRLGIDPDRIAVVPNGVDLEKYRPGSKDPRPTILWAGRIKMYKNLDHLLKAYRIVKQEIPDAQLIIIGTGDQEQKMRELAKKLEPRDVHFLGKMSEQEKIMWMQRAWIIVSTSMIEGWGITITEAAACKIPAIAYNVPGLRDSVKHMETGILVEPGNIEQLAKAIAWLLTDNSLRNKLSENAYNYAQSFSWDNTAITFLNILEDITRI | not soluble
MGSDKIHHHHHHMITCQMIHKTYAAGHGERKVLRGLDFAISRGEHVGFLGRNGAGKTTLIKLLGGVEFPTAGTIRRRMTVSWPLGFGGGFQGSLTGYDNARFIARIYGMSYRDIADFVEDFTELGRQLRAPVKTYSQGMRARLAFALSMAIEFDCYLVDEVILVGDHRFHEKCRLELFGKRSDRALILASHNAALIREHCTRAMVLHDGRGTMHDDIDLALRHYEAL | not soluble
MNASSAPQQQQQQQQPQQGQAPQQQQQGPPQHQYQQQRPFHGRVQNHMRGSGPFGNSNGYGRYTAPRGDQQHHDSTPLSSVSSRRVPLPPTSQHRASSNFNTTPSSTNLYIRGLMPNTNDDLLREMCSKYGNIASTKAIMDKATNNCKGYGFVDFESPQAAAAAVDGLNTEGVQAQMAKLQQQEQDPTNLYIANLPLDFTEQMLETELNKFGMVISTRILRTPDNQSRGVGFARMDSKEKCEVIISALNGGRFDTMSKEGPALLIKQADTGRKSKVGSTSRHPSFQQFSSLGGPTAFLNGQHSMNNPEMLQRMQYPQVYQSYYGYHPAAVYQQHYDVNSLASQMGGMHVGGGNPQANGGGDMYGAHMYGQNAGGQGGQGVGQGGQGGNQQFYNPNNGRNKKYFQPMNPQ | not soluble

Source: the DeepSol protein solubility set
